Results as given in patent US20240016892A1 (SHATTUCK LABS, published 2024).

Experiments:
mouse 4-1BB-His = target: T1, mouse 4-1BB-His (mouse, UniProt P20334 24-187); test: MSD: coat m41BB-His (Acro); detection anti-mouse Sulfo (MSD)
T1 construct: not shown: His tag
T1 sequence (looked up): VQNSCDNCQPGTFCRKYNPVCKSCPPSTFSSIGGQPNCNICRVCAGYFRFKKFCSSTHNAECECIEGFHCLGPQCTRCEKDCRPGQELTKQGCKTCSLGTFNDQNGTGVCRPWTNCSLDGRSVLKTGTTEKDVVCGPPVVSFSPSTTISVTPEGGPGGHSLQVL
Method: (§1) Mouse 4-1BB-His was coated on plates and increasing amounts of the mSIRPα-Fc-4-1BBL, or mSIRPα-Fc-CD40L chimeric proteins were added to the plates for capture by the plate-bound mouse 4-1BB-His. The mSIRPα-Fc-CD40L chimeric protein was used as a negative control for binding to mouse 4-1BB. Binding of the chimeric proteins to 4-1BB-His was detected using an anti-mouse-SULFO-TAG antibody. Binding was assayed using an electrochemiluminescence (ECL) readout.

mouse CD47-His = target: T2, mouse CD47-His (mouse, UniProt Q61735 19-140, limits assumed); test: MSD: coat mCD47-His (Acro); detection anti-mouse Sulfo (MSD)
T2 construct: not shown: His tag
T2 sequence (looked up): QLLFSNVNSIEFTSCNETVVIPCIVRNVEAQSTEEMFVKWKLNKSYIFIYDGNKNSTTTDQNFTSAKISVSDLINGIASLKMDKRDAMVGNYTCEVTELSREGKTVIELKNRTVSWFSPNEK
Method: as §1, with “CD47-His” for “4-1BB-His”, “mSIRPα-Fc-4-1BBL” for “mSIRPα-Fc-4-1BBL,”, “CD47-His.” for “4-1BB-His.”, “positive” for “negative”, “CD47.” for “4-1BB.”, “anti-mouse SULFO-TAG” for “anti-mouse-SULFO-TAG”

mouse CD47-Fc = target: T3, mouse CD47-Fc (mouse, UniProt Q61735 19-140, limits assumed); test: MSD dual-binding sandwich: coat mCD47-Fc (Acro); detect m41BB-His (Acro); anti-His Biotin + Streptavidin Sulfo
T3 construct: not shown: Fc; not described
T3 sequence (looked up): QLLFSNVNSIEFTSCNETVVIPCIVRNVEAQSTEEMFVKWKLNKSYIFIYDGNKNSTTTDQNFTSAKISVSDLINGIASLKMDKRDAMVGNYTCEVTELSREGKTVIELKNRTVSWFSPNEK
Method: To understand whether the mouse SIRPα-Fc-4-1BBL chimeric protein can contemporaneously bind to mouse 4-1BB and CD47, mouse CD47-Fc was coated on plates and increasing amounts of the mSIRPα-Fc-4-1BBL, or PD-1-Fc-4-1BBL chimeric proteins were added to the plates for capture by the plate-bound mouse CD47-Fc. The PD-1-Fc-4-1BBL chimeric protein was used as a negative control. Then, mouse 4-1BB-His was added to the plate for capture by any chimeric protein, which was captured in turn by the mouse CD47-Fc protein. An anti-His-biotin and streptavidin-SULFO-TAG were used for detection. Binding was assayed using an electrochemiluminescence (ECL) readout.

murine recombinant HVEM = target: T4, murine recombinant HVEM (mouse, UniProt Q80WM9 39-206); test: ELISA on recombinant murine targets
T4 construct: also called mouse HVEM
T4 sequence (looked up): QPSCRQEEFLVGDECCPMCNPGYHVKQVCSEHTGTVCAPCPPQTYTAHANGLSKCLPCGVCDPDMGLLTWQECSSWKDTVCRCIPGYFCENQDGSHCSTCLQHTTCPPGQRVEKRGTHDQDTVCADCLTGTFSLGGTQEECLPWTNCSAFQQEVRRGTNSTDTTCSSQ

CHOK1/mLTβR = target: T5, CHOK1/mLTβR (mouse, UniProt P50284); test: flow cytometry on CHOK1/mLTβR cells
T5 construct: expressed on the surface of stably transfected CHO-K1 cells; also called cell surface mouse LTβR on CHO-K1/mLTβR cells
T5 sequence (P50284 31-415 limits assumed): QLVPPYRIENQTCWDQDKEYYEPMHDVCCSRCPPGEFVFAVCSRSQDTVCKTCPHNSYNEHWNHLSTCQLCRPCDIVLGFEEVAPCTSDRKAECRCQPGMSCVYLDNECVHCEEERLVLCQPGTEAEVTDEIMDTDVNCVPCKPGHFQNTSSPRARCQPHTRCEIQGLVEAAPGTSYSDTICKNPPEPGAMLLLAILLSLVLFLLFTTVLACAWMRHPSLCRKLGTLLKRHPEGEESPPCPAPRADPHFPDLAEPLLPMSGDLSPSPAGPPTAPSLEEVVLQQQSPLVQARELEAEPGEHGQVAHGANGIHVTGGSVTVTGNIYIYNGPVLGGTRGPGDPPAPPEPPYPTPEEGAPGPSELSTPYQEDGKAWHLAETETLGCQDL

anti-H&L = target: T6, anti-H&L; test: ELISA: capture anti-H&L; detection anti-Fc-HRP
T6 construct: also called capture antibody of the Fc ELISA panel

murine recombinant LTβR = target: T7, murine recombinant LTβR (mouse, UniProt P50284 31-223); test: ELISA: capture mLTβR-His; detection anti-mLIGHT-Bio
T7 construct: also called mouse LTβR; printed LOUR
T7 sequence (P50284 31-223): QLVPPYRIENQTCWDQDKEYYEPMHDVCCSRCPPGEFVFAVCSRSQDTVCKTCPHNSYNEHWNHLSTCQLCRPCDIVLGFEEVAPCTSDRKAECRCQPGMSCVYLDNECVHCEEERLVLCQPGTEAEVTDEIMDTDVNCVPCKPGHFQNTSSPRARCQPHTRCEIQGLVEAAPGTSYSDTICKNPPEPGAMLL

murine recombinant PVR = target: T8, murine recombinant PVR (mouse); test: ELISA: capture mCD115/PVR (so in the source); detection anti-Fc-HRP
T8 construct: also called mouse PVR

B1: mouse SIRPα-Fc-4-1BBL chimeric protein (Fc fusion)
chain: KELKVTQPEKSVSVAAGDSTVLNCTLTSLLPVGPIKWYRGVGQSRLLIYSFTGEHFPRVTNVSDATKRNNMDFSIRISNVTPEDAGTYYCVKFQKGPSEPDTEIQSGGGTEVYVLAKPSPPEVSGPADRGIPDQKVNFTCKSHGFSPRNITLKWFKDGQELHHLETTVNPSGKNVSYNISSTVRVVLNSMDVHSKVICEVAHITLDRSPLRGIANLSNFIRVSPTVKVTQQSPTSMNQVNLTCRAERFYPEDLQLIWLENGNVSRNDTPKNLTKNTDGTYNYTSLFLVNSSAHREDVVFTCQVKHDQQPAITRNHTVLGLAHSSDQGSMQTFPGNNATHNWNVPRDCGCKPCICTVPEVSSVFIFPPKPKDVLTITLTPKVTCVVVDISKDDPEVQFSWFVDDVEVHTAQTQPREEQFNSTFRSVSELPIMHQDWLNGKEFKCRVNSAAFPAPIEKTISKTKGRPKAPQVYTIPPPKEQMAKDKVSLTCMITDFFPEDITVEWQWNGQPAENYKNTQPIMDTDGSYFVYSKLNVQKSNWEAGNTFTCSVLHEGLHNHHTEKSLSHSPGIIEGRMDRTEPRPALTITTSPNLGTRENNADQVTPVSHIGCPNTTQQGSPVFAKLLAKNQASLCNTTLNWHSQDGAGSSYLSQGLRYEEDKKELVVDSPGLYYVFLELKLSPTFTNTGHKVQGWVSLVLQAKPQVDDFDNLALTVELFPCSMENKLVDRSWSQLLLLKAGHRLSVGLRAYLHGAQDAYRDWELSYPNTTSFGLFLVKPDNPWE
notes: also called mSIRPα-Fc-4-1BBL
EC50 (mouse 4-1BB-His): 0.674 nM | EC50 (mouse CD47-His): 0.609 nM | EC50 (mouse CD47-Fc): 22.4 nM

B2: mouse TIGIT-Fc-LIGHT chimeric protein (Fc fusion)
chain: TIDTKRNISAEEGGSVILQCHFSSDTAEVTQVDWKQQDQLLAIYSVDLGWHVASVFSDRVVPGPSLGLTFQSLTMNDTGEYFCTYHTYPGGIYKGRIFLKVQESSDDRNGLAQFQTAPLGVPRDCGCKPCICTVPEVSSVFIFPPKPKDVLTITLTPKVTCVVVDISKDDPEVQFSWFVDDVEVHTAQTQPREEQFNSTFRSVSELPIMHQDWLNGKEFKCRVNSAAFPAPIEKTISKTKGRPKAPQVYTIPPPKEQMAKDKVSLTCMITDFFPEDITVEWQWNGQPAENYKNTQPIMDTDGSYFVYSKLNVQKSNWEAGNTFTCSVLHEGLHNHHTEKSLSHSPGKIEGRMDLHQRLGDIVAHLPDGGKGSWEKLIQDQRSHQANPAAHLTGANASLIGIGGPLLWETRLGLAFLRGLTYHDGALVTMEPGYYYVYSKVQLSGVGCPQGLANGLPITHGLYKRTSRYPKELELLVSRRSPCGRANSSRVWWDSSFLGGVVHLEAGEEVVVRVPGNRLVRPRDGTRSYFGAFMV
notes: also called mTIGIT-Fc-LIGHT; murine TIGIT-Fc-LIGHT chimeric protein
binding result (murine recombinant HVEM): binds | binding result (CHOK1/mLTβR): binds | EC50 (read off the curve) (anti-H&L): ~4 nM | binding result (murine recombinant LTβR): binds | EC50 (read off the curve) (murine recombinant PVR): ~5 nM
